Measurements from publication PMC6335422 (Nature Communications, 2019).

Tested on: Erh1-Mmi1 interaction
Assay: Co-immunoprecipitation of Erh1-GFP and FLAG-Mmi1 from yeast cells
Type: cell-based, S. pombe
Settings: FLAG-Mmi1 WT replaced with mutant; Erh1-GFP; YEA medium, 32 °C
Procedure: Cells were grown to mid-log phase in rich YEA medium at 32 °C, harvested, and flash-frozen in liquid nitrogen prior to extract preparations. Extracts prepared from yeast cells expressing epitope tagged proteins under the control of native gene promoters were used for immunoprecipitations and Western blot analyses as described. Total protein extracts for western blotting analyses were prepared by trichloroacetic acid (TCA) precipitation. Briefly, cells were lysed using glass beads in 20% TCA buffer. Next, lysates were diluted using 5% TCA buffer and total protein pellets were concentrated by centrifugation at 21,000×g for 5 min. Precipitated protein was dissolved in sodium dodecyl sulfate (SDS) sample buffer prior to resolution in a polyacrylamide gel. For immunoprecipitation experiments, cells were lysed using glass beads in 2X HC lysis buffer (300 mM HEPES buffer pH 7.6, 100 mM KCl, 2 mM EDTA, 0.2% NP-40, and 0.2 mM DTT) containing protease inhibitor cocktail (11697498001, Roche) and 2 mM PMSF. Lysate cleared of cellular debris was incubated with antibody-conjugated beads for immunoprecipitation. […]

B1: mutant Mmi^W112A protein: full-length Mmi1 carrying W112A, expressed in S. pombe (protein)
chain: MSNTNFSTSRSSKSIPELPNLEALRSLWPPPSLNESGDTRSVWTTHTGEPVASSVLSTSGSNNFSSPLKRPAPESHDAPIGRRLMVDDPRLIKHGKYDFSRHCTDYGHSYEAPYFRSLRRESMLYHTSGSYPESQPPYSSYSTDAPHYYHAGSESSAYYDSRSRLHGIQPPPKRRTLSPPPRRLADPVVVGSSRYVEEEVYRRPPYTLASEVPSSASAYQAGYSSYPVRSSPQLSHEDTRHGIASSGSTRYPFVPANTRASHSPSLLEPYAHSLPSSVAPVGAYPEKSSYLLSNSSNDSASRKEKPKARASTPPPLNFSRASEHRNEKGERISMINPRVVLDENGISHRSRYFIMLCDNETAIAHAKKTSIWAVKKDSSKRISDAYKKASVYFIFVAQQTYNALGYAQVVSDLNSTELPFWSDSSHAGGVRIKWIKTCNLFSAEISEIVSHMDHGSEARDGMEMMYDEGSRLCTLINYAIMKRIGRDR
modifications: left off: FLAG, end not stated, kept
notes: full-length Mmi1 carrying W112A, expressed in S. pombe
- Erh1-Mmi1 interaction (co-immunoprecipitation): drastically diminished the Erh1-Mmi1 interaction
